Experimental data from US20060058231A1 (Xencor, published 2006).

Assays:
[1] = target: T1, ActRIIa receptor-Fc fusion (UniProt P27037 20-134, limits assumed); test: ELISA-like plate assay, captured BMP-7 from conditioned media, receptor-Fc detection
T1 construct: BMP receptor-Fc fusion used at 5 ug/mL
T1 sequence (P27037 20-134 limits assumed): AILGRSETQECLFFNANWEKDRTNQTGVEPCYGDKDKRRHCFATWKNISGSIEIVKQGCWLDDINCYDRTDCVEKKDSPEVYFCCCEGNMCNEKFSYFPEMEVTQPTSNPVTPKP

[2] = target: T2, BMPRII receptor-Fc fusion (UniProt Q13873 27-151, limits assumed); test: as above
T2 construct: BMP receptor-Fc fusion used at 5 ug/mL
T2 sequence (looked up): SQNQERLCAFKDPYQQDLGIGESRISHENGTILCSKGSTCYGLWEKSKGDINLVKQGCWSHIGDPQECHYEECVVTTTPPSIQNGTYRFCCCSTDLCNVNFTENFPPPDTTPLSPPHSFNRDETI

[3] = target: T3, BMPRIa receptor-Fc fusion (UniProt P36894 24-152, limits assumed); test: as above
T3 construct: also called ALK-3
T3 sequence (P36894 24-152 limits assumed): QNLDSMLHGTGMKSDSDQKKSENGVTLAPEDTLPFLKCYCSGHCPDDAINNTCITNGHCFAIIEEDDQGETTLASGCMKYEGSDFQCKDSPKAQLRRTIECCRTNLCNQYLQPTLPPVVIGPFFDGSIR

[4] = target: T4, BMPRIb receptor-Fc fusion (UniProt O00238 14-126); test: as above
T4 construct: BMP receptor-Fc fusion used at 5 ug/mL; also called ALK-6
T4 sequence (looked up): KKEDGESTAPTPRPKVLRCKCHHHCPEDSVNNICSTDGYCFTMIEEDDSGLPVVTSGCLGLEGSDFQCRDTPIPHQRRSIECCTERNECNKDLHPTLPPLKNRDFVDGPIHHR

[5] = target: T5, ActRIIa receptor-Fc fusion (UniProt P27037 20-134, limits assumed); test: ELISA-like, fixed volume of conditioned media, receptor-Fc
T5 construct: BMP receptor-Fc fusion, detected with anti-human IgG-HRP
T5 sequence (P27037 20-134 limits assumed): as the sequence (P27037 20-134 limits assumed) above

[6] = target: T6, BMPRII receptor-Fc fusion (UniProt Q13873 27-151, limits assumed); test: as above
T6 construct: BMP receptor-Fc fusion, detected with anti-human IgG-HRP
T6 sequence (looked up): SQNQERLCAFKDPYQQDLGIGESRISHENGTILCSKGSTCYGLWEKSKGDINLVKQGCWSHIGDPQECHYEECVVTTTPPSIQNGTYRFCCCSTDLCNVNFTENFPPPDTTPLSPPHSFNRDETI

[7] = target: T7, BMPRIa receptor-Fc fusion (UniProt P36894 24-152, limits assumed); test: as above
T7 construct: BMP receptor-Fc fusion; also called ALK-3
T7 sequence (P36894 24-152 limits assumed): as the sequence (P36894 24-152 limits assumed) above

[8] = target: T8, BMPRIb receptor-Fc fusion (UniProt O00238 14-126); test: as above
T8 construct: BMP receptor-Fc fusion, detected with anti-human IgG-HRP; also called ALK-6
T8 sequence (looked up): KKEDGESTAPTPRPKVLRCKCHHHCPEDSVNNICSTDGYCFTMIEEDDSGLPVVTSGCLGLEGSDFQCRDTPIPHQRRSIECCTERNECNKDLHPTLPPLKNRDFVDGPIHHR

Binder	ActRIIa binding (relative to wild type = 1.0) [1]	BMPRII binding (relative to wild type = 1.0) [2]	BMPRIa binding (relative to wild type = 1.0) [3]	BMPRIb binding (relative to wild type = 1.0) [4]	ActRIIa binding relative to wild type [5]	BMPRII binding relative to wild type [6]	BMPRIa binding relative to wild type [7]	BMPRIb binding relative to wild type [8]
BMP-7 variant W55N (ligand, In conditioned media; numbering on mature BMP-7) STGGKQRSQNRSKTPKNQEALRMASVAENSSSDQRQACKKHELYVSFRDLGWQDNIIAPEGYAAYYCEGECAFPLNSYMNATNHAIVQTLVHFINPETVPKPCCAPTQLNAISVLYFDDSSNVILKKYRNMVVRACGCH	0.41 relative to wild type	0.82 relative to wild type	0.35 relative to wild type	0 relative to wild type				
BMP-7 variant Y78S (ligand, In conditioned media; numbering on mature BMP-7) STGGKQRSQNRSKTPKNQEALRMASVAENSSSDQRQACKKHELYVSFRDLGWQDWIIAPEGYAAYYCEGECAFPLNSSMNATNHAIVQTLVHFINPETVPKPCCAPTQLNAISVLYFDDSSNVILKKYRNMVVRACGCH	1.58 relative to wild type	1.77 relative to wild type	1.29 relative to wild type	2.75 relative to wild type				
BMP-7 variant Y44T (ligand, In conditioned media; numbering on mature BMP-7) STGGKQRSQNRSKTPKNQEALRMASVAENSSSDQRQACKKHELTVSFRDLGWQDWIIAPEGYAAYYCEGECAFPLNSYMNATNHAIVQTLVHFINPETVPKPCCAPTQLNAISVLYFDDSSNVILKKYRNMVVRACGCH	0.36 relative to wild type	0.25 relative to wild type	1.09 relative to wild type	1.33 relative to wild type				
BMP-7 variant K39T (ligand) STGGKQRSQNRSKTPKNQEALRMASVAENSSSDQRQACTKHELYVSFRDLGWQDWIIAPEGYAAYYCEGECAFPLNSYMNATNHAIVQTLVHFINPETVPKPCCAPTQLNAISVLYFDDSSNVILKKYRNMVVRACGCH					0.98 relative to wt = 1.0	0.75 relative to wt = 1.0	0.74 relative to wt = 1.0	0.86 relative to wt = 1.0
BMP-7 variant W55R (ligand, In conditioned media; numbering on mature BMP-7) STGGKQRSQNRSKTPKNQEALRMASVAENSSSDQRQACKKHELYVSFRDLGWQDRIIAPEGYAAYYCEGECAFPLNSYMNATNHAIVQTLVHFINPETVPKPCCAPTQLNAISVLYFDDSSNVILKKYRNMVVRACGCH	1.2 relative to wild type	1.52 relative to wild type	1.75 relative to wild type	2.17 relative to wild type				
BMP-7 variant E60S (ligand) STGGKQRSQNRSKTPKNQEALRMASVAENSSSDQRQACKKHELYVSFRDLGWQDWIIAPSGYAAYYCEGECAFPLNSYMNATNHAIVQTLVHFINPETVPKPCCAPTQLNAISVLYFDDSSNVILKKYRNMVVRACGCH					1.02 relative to wt = 1.0	0.88 relative to wt = 1.0	0.74 relative to wt = 1.0	0.87 relative to wt = 1.0
BMP-7 variant Q53A (ligand) STGGKQRSQNRSKTPKNQEALRMASVAENSSSDQRQACKKHELYVSFRDLGWADWIIAPEGYAAYYCEGECAFPLNSYMNATNHAIVQTLVHFINPETVPKPCCAPTQLNAISVLYFDDSSNVILKKYRNMVVRACGCH					0.84 relative to wt = 1.0	0.26 relative to wt = 1.0	0.54 relative to wt = 1.0	0.65 relative to wt = 1.0
BMP-7 variant Y78P (ligand, In conditioned media; numbering on mature BMP-7) STGGKQRSQNRSKTPKNQEALRMASVAENSSSDQRQACKKHELYVSFRDLGWQDWIIAPEGYAAYYCEGECAFPLNSPMNATNHAIVQTLVHFINPETVPKPCCAPTQLNAISVLYFDDSSNVILKKYRNMVVRACGCH	0.92 relative to wild type	0.85 relative to wild type	0.75 relative to wild type	0.69 relative to wild type				
BMP-7 variant Y78T (ligand, In conditioned media; numbering on mature BMP-7) STGGKQRSQNRSKTPKNQEALRMASVAENSSSDQRQACKKHELYVSFRDLGWQDWIIAPEGYAAYYCEGECAFPLNSTMNATNHAIVQTLVHFINPETVPKPCCAPTQLNAISVLYFDDSSNVILKKYRNMVVRACGCH	1.63 relative to wild type	2.66 relative to wild type	0.87 relative to wild type	2.4 relative to wild type				
BMP-7 variant Y78H (ligand, In conditioned media; numbering on mature BMP-7) STGGKQRSQNRSKTPKNQEALRMASVAENSSSDQRQACKKHELYVSFRDLGWQDWIIAPEGYAAYYCEGECAFPLNSHMNATNHAIVQTLVHFINPETVPKPCCAPTQLNAISVLYFDDSSNVILKKYRNMVVRACGCH	1.07 relative to wild type	1.47 relative to wild type	1.36 relative to wild type	1.34 relative to wild type				
BMP-7 variant Y128K (ligand, In conditioned media; numbering on mature BMP-7) STGGKQRSQNRSKTPKNQEALRMASVAENSSSDQRQACKKHELYVSFRDLGWQDWIIAPEGYAAYYCEGECAFPLNSYMNATNHAIVQTLVHFINPETVPKPCCAPTQLNAISVLYFDDSSNVILKKKRNMVVRACGCH	1.11 relative to wild type	1.78 relative to wild type	1.4 relative to wild type	1.57 relative to wild type				
BMP-7 variant K39D (ligand) STGGKQRSQNRSKTPKNQEALRMASVAENSSSDQRQACDKHELYVSFRDLGWQDWIIAPEGYAAYYCEGECAFPLNSYMNATNHAIVQTLVHFINPETVPKPCCAPTQLNAISVLYFDDSSNVILKKYRNMVVRACGCH					0.88 relative to wt = 1.0	0.72 relative to wt = 1.0	0.67 relative to wt = 1.0	0.82 relative to wt = 1.0
BMP-7 variant Y78D (ligand, In conditioned media; numbering on mature BMP-7) STGGKQRSQNRSKTPKNQEALRMASVAENSSSDQRQACKKHELYVSFRDLGWQDWIIAPEGYAAYYCEGECAFPLNSDMNATNHAIVQTLVHFINPETVPKPCCAPTQLNAISVLYFDDSSNVILKKYRNMVVRACGCH	1.93 relative to wild type	2.72 relative to wild type	1.05 relative to wild type	2.01 relative to wild type				
BMP-7 variant K126G (ligand) STGGKQRSQNRSKTPKNQEALRMASVAENSSSDQRQACKKHELYVSFRDLGWQDWIIAPEGYAAYYCEGECAFPLNSYMNATNHAIVQTLVHFINPETVPKPCCAPTQLNAISVLYFDDSSNVILGKYRNMVVRACGCH					0.53 relative to wt = 1.0	0.12 relative to wt = 1.0	0.3 relative to wt = 1.0	0.35 relative to wt = 1.0
BMP-7 variant R134L (ligand) STGGKQRSQNRSKTPKNQEALRMASVAENSSSDQRQACKKHELYVSFRDLGWQDWIIAPEGYAAYYCEGECAFPLNSYMNATNHAIVQTLVHFINPETVPKPCCAPTQLNAISVLYFDDSSNVILKKYRNMVVLACGCH					0.99 relative to wt = 1.0	1 relative to wt = 1.0	1.03 relative to wt = 1.0	1.02 relative to wt = 1.0
BMP-7 variant Y78R (ligand, In conditioned media; numbering on mature BMP-7) STGGKQRSQNRSKTPKNQEALRMASVAENSSSDQRQACKKHELYVSFRDLGWQDWIIAPEGYAAYYCEGECAFPLNSRMNATNHAIVQTLVHFINPETVPKPCCAPTQLNAISVLYFDDSSNVILKKYRNMVVRACGCH	2.26 relative to wild type	3.13 relative to wild type	1.36 relative to wild type	2.39 relative to wild type				
BMP-7 variant Y44N (ligand, In conditioned media; numbering on mature BMP-7) STGGKQRSQNRSKTPKNQEALRMASVAENSSSDQRQACKKHELNVSFRDLGWQDWIIAPEGYAAYYCEGECAFPLNSYMNATNHAIVQTLVHFINPETVPKPCCAPTQLNAISVLYFDDSSNVILKKYRNMVVRACGCH	0.45 relative to wild type	1.46 relative to wild type	2.05 relative to wild type	1.81 relative to wild type				
